Target: ELMO1-DOCK5 (1 to 1642) complex (human, UniProt Q9H7D0 1-1642; Q92556 1-727)
Assay: SPR

ELMO1-DOCK5 (1 to 1642) complex, sequence (Q9H7D0 1-1642, chain 1 of 2): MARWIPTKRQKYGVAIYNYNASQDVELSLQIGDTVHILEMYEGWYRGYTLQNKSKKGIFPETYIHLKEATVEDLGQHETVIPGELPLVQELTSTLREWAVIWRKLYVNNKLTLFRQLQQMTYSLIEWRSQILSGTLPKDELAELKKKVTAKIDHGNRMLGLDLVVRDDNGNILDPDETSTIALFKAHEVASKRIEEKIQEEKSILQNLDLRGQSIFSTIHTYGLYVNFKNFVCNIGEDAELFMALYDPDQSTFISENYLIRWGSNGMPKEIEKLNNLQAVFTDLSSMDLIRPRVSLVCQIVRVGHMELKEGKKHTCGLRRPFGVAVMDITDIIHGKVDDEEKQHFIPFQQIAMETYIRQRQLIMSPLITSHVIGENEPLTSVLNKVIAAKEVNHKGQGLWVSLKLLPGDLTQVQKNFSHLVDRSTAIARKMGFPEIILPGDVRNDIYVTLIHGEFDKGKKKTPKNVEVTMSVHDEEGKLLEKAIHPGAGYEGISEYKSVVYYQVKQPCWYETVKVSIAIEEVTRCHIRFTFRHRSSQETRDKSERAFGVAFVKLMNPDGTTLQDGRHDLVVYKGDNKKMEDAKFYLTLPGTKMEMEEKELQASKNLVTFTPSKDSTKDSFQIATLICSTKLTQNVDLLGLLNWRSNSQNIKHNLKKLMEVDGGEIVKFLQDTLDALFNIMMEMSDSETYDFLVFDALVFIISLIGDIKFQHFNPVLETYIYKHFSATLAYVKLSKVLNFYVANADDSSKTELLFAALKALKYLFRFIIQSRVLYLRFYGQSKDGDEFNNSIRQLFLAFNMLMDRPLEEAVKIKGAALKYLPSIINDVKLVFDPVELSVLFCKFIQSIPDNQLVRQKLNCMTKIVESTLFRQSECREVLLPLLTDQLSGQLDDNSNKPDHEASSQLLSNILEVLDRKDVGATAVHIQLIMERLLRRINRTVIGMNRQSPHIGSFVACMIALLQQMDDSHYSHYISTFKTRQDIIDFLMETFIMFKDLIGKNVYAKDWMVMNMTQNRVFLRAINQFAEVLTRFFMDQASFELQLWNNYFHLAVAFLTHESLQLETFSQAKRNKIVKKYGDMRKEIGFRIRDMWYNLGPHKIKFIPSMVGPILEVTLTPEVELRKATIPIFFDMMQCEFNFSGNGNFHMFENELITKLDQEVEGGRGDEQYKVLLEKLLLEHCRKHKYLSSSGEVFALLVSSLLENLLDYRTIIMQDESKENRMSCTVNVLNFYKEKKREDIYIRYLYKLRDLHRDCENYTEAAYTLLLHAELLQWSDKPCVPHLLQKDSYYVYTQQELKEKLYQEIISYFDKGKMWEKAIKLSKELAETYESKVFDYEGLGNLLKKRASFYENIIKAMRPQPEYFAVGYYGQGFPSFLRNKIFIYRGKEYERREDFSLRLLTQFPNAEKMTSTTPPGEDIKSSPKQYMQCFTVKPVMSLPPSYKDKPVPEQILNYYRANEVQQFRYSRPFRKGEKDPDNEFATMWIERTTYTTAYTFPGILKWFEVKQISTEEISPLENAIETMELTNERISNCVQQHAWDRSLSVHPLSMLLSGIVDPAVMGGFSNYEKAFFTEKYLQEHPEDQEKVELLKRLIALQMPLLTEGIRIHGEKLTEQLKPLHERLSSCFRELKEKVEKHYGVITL
ELMO1-DOCK5 (1 to 1642) complex, sequence (Q92556 whole entry, chain 2 of 2): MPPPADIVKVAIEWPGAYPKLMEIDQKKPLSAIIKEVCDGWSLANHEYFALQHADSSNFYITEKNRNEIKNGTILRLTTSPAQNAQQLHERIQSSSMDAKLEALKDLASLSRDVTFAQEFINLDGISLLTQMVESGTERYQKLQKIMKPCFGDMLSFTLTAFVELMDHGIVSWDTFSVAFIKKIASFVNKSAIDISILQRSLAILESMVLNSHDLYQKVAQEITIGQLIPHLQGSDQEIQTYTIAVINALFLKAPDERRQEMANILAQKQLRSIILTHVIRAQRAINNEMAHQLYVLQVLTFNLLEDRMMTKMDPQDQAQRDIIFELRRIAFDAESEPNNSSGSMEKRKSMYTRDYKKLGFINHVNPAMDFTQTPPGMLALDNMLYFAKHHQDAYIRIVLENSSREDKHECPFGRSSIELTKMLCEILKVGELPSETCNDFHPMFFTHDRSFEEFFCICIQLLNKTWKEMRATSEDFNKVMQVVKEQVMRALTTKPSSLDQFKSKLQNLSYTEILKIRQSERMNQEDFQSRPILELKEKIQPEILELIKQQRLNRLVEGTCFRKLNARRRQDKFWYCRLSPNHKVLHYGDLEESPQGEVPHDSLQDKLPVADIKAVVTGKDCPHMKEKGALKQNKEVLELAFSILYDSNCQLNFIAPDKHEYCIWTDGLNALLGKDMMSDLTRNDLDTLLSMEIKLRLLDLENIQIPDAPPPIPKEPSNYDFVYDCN

B1: human RhoG (residues 1 to 184) Q61L mutant, GTP-bound (natural protein)
chain: not shown
For B1, the Kd was 10.3 µM.

Source: PMC8294757 (Science Advances, 2021)
